We go through 16 substances from patent EP1073891B1, “METHOD OF PREDICTING RECEPTOR MODULATING ACTIVITY” (Duke University, priority 1998, dated 1999).

The target of one test is ERβ (Homo sapiens, UniProt Q92731). Nature of the test: Phage ELISA / fingerprint on ER immobilized on biotinylated ERE (Examples 2.3-2.5). It is filed as binding. Set-up: purchased PanVera Corporation, Madison, WI; key: semiquantitative scale of 0 to 7+; 1+: semiquantitative scale of 0 to 7+; 2+: semiquantitative scale of 0 to 7+; 3+: semiquantitative scale of 0 to 7+; 4+: semiquantitative scale of 0 to 7+; 5+: semiquantitative scale of 0 to 7+; 6+: semiquantitative scale of 0 to 7+; semiquantitative scale of 0 to 7+. Particulars: for binding activity, ERβ and Estradiol: ERβ and Estradiol (1 µM); for binding activity, ERβ and tamoxifen: ERβ and tamoxifen (4-OH tamoxifen, 1 µM). Background: An ELISA detects its analyte on a solid surface through an enzyme-linked reagent.

A further test concerns the target T1, ERα (Homo sapiens, UniProt P03372).
T1 sequence (P03372 1-595): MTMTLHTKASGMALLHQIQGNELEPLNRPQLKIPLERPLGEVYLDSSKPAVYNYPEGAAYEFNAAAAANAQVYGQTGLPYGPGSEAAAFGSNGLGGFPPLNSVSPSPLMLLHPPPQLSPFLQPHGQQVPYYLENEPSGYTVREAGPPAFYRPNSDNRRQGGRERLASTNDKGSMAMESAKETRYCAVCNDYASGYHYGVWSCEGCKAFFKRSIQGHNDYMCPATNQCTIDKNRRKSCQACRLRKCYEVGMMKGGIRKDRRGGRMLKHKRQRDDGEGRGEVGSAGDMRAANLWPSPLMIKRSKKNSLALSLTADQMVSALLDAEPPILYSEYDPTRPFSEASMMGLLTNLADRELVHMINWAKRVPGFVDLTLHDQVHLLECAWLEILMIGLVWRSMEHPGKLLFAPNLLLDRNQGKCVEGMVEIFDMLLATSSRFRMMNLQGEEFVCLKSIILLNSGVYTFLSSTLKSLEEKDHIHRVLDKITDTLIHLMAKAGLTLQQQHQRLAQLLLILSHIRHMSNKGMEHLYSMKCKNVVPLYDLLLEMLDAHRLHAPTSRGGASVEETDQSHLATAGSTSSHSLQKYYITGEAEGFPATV
The test is described as above. Particulars: for binding activity, ERα and estradiol: ERα and estradiol (1 µM); for binding activity, ERα and tamoxifen: ERα and tamoxifen (4-OH tamoxifen, 1 µM). Set-up: purchased PanVera Corporation, Madison, WI; key to binding activity, ERα and buffer / binding activity, ERα and estradiol / binding activity, ERα and tamoxifen / binding of peptide, Class Specific Fingerprint on ERα: semiquantitative scale of 0 to 7+; 1+: semiquantitative scale of 0 to 7+; 2+: semiquantitative scale of 0 to 7+; 3+: semiquantitative scale of 0 to 7+; 4+: semiquantitative scale of 0 to 7+; 5+: semiquantitative scale of 0 to 7+; 6+: semiquantitative scale of 0 to 7+; semiquantitative scale of 0 to 7+. It is filed as binding.

Where [1] appears, read: 4-OH Tamoxifen present during binding.
Setting [2] is: 16a-OH Estrone present during binding.
The mark [3] stands for this setting: Clomiphene present during binding.
[4] abbreviates: Estradiol present during binding.
Setting [5] is: ICI 182,780 present during binding.
The mark [6] stands for this setting: Nafoxidine present during binding.
Where [7] appears, read: Premarin present during binding.
Setting [8] is: Progesterone present during binding.
Where [9] appears, read: Raloxifene present during binding.

ERβ, sequence (Q92731 whole entry): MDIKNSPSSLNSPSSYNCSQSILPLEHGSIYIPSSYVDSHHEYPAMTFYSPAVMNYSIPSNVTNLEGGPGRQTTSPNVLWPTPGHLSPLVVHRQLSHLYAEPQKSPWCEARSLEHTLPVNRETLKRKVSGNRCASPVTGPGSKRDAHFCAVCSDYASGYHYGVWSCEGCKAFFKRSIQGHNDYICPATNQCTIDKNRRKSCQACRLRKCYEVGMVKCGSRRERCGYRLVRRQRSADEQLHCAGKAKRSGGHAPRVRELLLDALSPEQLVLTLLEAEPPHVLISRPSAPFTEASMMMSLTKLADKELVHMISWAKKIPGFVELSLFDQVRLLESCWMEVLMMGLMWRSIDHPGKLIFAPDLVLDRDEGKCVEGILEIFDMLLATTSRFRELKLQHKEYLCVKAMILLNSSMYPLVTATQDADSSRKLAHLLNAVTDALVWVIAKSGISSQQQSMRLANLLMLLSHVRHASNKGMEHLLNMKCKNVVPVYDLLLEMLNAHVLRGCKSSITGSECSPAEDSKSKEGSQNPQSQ

For the substance SRPEGSSWLLHYLSR [Peptide 24E-β], in the test with ERβ, the “binding activity, ERβ and Estradiol” value is on record as 7+; the “binding activity, ERβ and buffer” value is given as 5+; the “binding activity, ERβ and tamoxifen” value is 2+. Besides, in the test with ERα, the “binding activity, ERα and buffer” value is 5+; the “binding activity, ERα and estradiol” value is on record as 6+; the “binding activity, ERα and tamoxifen” value was 4+.

Take SSRGLLWDLLTKDSR [Peptide 1E-β]: in the test with ERβ, the “binding activity, ERβ and Estradiol” value is on record as 7+; the “binding activity, ERβ and buffer” value is reported as 5+; the “binding activity, ERβ and tamoxifen” value is 3+. In the test with ERα, the “binding activity, ERα and buffer” value is reported as 5+; the “binding activity, ERα and estradiol” value is listed as 7+; the “binding activity, ERα and tamoxifen” value is reported as 5+.

Turning to SSYDWQCPSWYCPAPPSSR [Peptide 29E-β], in the test with ERβ, the “binding activity, ERβ and Estradiol” value was 7+; the “binding activity, ERβ and buffer” value is given as 7+; the “binding activity, ERβ and tamoxifen” value is listed as 5+. In the test with ERα, the “binding activity, ERα and buffer” value is given as 3+; the “binding activity, ERα and estradiol” value was 4+; the “binding activity, ERα and tamoxifen” value is 3+.

Consider SSDLHRDCLGVWCLSR [Peptide 17t-β], for which, in the test with ERβ, the “binding activity, ERβ and Estradiol” value was 7+; the “binding activity, ERβ and buffer” value is given as 7+; the “binding activity, ERβ and tamoxifen” value is on record as 7+. Further, in the test with ERα, the “binding activity, ERα and buffer” value was 1+; the “binding activity, ERα and estradiol” value is recorded as 2+; the “binding activity, ERα and tamoxifen” value is reported as 2+.

For the substance SSRTPILFSLLETSR [Peptide 11E-β], in the test with ERβ, the “binding activity, ERβ and Estradiol” value is 6+; the “binding activity, ERβ and buffer” value is on record as 5+; the “binding activity, ERβ and tamoxifen” value is on record as 4+. For the same substance, in the test with ERα, the “binding activity, ERα and buffer” value is on record as 6+; the “binding activity, ERα and estradiol” value is on record as 5+; the “binding activity, ERα and tamoxifen” value is listed as 6+.

In the case of SSHCHTRLCSLLTSR [Peptide 15E-β], in the test with ERβ, the “binding activity, ERβ and Estradiol” value is 7+; the “binding activity, ERβ and buffer” value was 4+. In the test with ERα, the “binding activity, ERα and buffer” value was 6+; the “binding activity, ERα and estradiol” value was 6+; the “binding activity, ERα and tamoxifen” value is recorded as 5+.

As for SRLNGVFCHDSSDLWVCSR [Peptide 18t-β], in the test with ERβ, the “binding activity, ERβ and Estradiol” value was 3+; the “binding activity, ERβ and buffer” value is listed as 6+; the “binding activity, ERβ and tamoxifen” value is on record as 7+. In the test with ERα, the “binding activity, ERα and buffer” value is 7+; the “binding activity, ERα and estradiol” value was 6+; the “binding activity, ERα and tamoxifen” value was 7+.

Take SRPYCLGDVWCLDSR [Peptide 2t-β]: in the test with ERβ, the “binding activity, ERβ and Estradiol” value is 6+; the “binding activity, ERβ and buffer” value is 7+; the “binding activity, ERβ and tamoxifen” value was 7+. Also, in the test with ERα, the “binding activity, ERα and buffer” value is listed as 2+; the “binding activity, ERα and estradiol” value is reported as 2+; the “binding activity, ERα and tamoxifen” value is 3+.

On to SRLHCLLDSSYCSSR [Peptide 1b-β], for which, in the test with ERβ, the “binding activity, ERβ and Estradiol” value is 7+; the “binding activity, ERβ and buffer” value is recorded as 7+; the “binding activity, ERβ and tamoxifen” value is 2+. For the same substance, in the test with ERα, the “binding activity, ERα and buffer” value was 4+; the “binding activity, ERα and estradiol” value is 7+; the “binding activity, ERα and tamoxifen” value is recorded as 3+.

Turning to SWDMHQFFWEGVSR [Peptide 2PT], the “binding of peptide, Class Specific Fingerprint on ERβ” value with ERβ (setting [1]) is listed as 7+; in the test with ERβ (setting [2]), 1+; in the test with ERβ (setting [3]), 5+; in the test with ERβ (DES present during binding), 1+; in the test with ERβ (setting [4]) it was 1+; with ERβ (Estriol present during binding), 1+. The “binding of peptide, Class Specific Fingerprint on ERβ” value with ERβ (setting [5]) is recorded as 1+; with ERβ (setting [6]), 3+; with ERβ (setting [7]), 1+; with ERβ (setting [8]), 1+; with ERβ (setting [9]), 6+; with ERβ (buffer present during binding), 2+. The “binding of peptide, Class Specific Fingerprint on ERα” value (shortened to “binding of peptide … on ERα”) with ERα (setting [1]) is 7+; with ERα (setting [2]), 2+; with ERα (setting [3]) it was 6+; with ERα (DES present during binding) it was 1+; with ERα (setting [4]), 1+; with ERα (Estriol present during binding) it was 1+. Besides, the “binding of peptide … on ERα” value is on record as 1+ with ERα (setting [5]); 4+ in the test with ERα (setting [6]); 2+ with ERα (setting [7]); 2+ with ERα (setting [8]); 4+ with ERα (setting [9]); 1+ with ERα (buffer present during binding).

As to SSPGSREWFKDMLSR [Peptide 14t-β], in the test with ERβ, the “binding activity, ERβ and Estradiol” value is recorded as 2+; the “binding activity, ERβ and buffer” value is given as 3+; the “binding activity, ERβ and tamoxifen” value is listed as 7+. Moreover, in the test with ERα, the “binding activity, ERα and buffer” value is reported as 2+; the “binding activity, ERα and estradiol” value was 2+; the “binding activity, ERα and tamoxifen” value is 7+.

Regarding SSRPSFTIPWWFDDPSRSR [Peptide 33E-β], in the test with ERβ, the “binding activity, ERβ and Estradiol” value is listed as 7+; the “binding activity, ERβ and buffer” value is reported as 5+; the “binding activity, ERβ and tamoxifen” value was 2+. In the test with ERα, the “binding activity, ERα and buffer” value was 3+; the “binding activity, ERα and estradiol” value is 3+; the “binding activity, ERα and tamoxifen” value is 2+.

For SSARPWWLQFEGSSR [Peptide 7t-β], in the test with ERβ, the “binding activity, ERβ and Estradiol” value was 7+; the “binding activity, ERβ and buffer” value was 7+; the “binding activity, ERβ and tamoxifen” value is 7+. In the test with ERα, the “binding activity, ERα and buffer” value was 2+; the “binding activity, ERα and estradiol” value is 2+; the “binding activity, ERα and tamoxifen” value is given as 2+.

SSILERLLGGGSAETV [Peptide 9E-β]: in the test with ERβ, the “binding activity, ERβ and Estradiol” value is listed as 7+; the “binding activity, ERβ and buffer” value is 4+; the “binding activity, ERβ and tamoxifen” value is given as 1+. In addition, in the test with ERα, the “binding activity, ERα and buffer” value is 3+; the “binding activity, ERα and estradiol” value is listed as 4+.

For the substance SSRCSSLLCEMLIQTKESR [Peptide 22E-β], in the test with ERβ, the “binding activity, ERβ and Estradiol” value is on record as 7+; the “binding activity, ERβ and buffer” value is 5+; the “binding activity, ERβ and tamoxifen” value is given as 2+. In the test with ERα, the “binding activity, ERα and buffer” value is given as 4+; the “binding activity, ERα and estradiol” value was 5+; the “binding activity, ERα and tamoxifen” value is 3+.

For “S R T W E S P L G T W E W S R (SRTWESPLGTWEWSR) [#13 ER]”, the “binding of peptide … on ERα” value was 6+ in the test with ERα (setting [1]); 2+ in the test with ERα (setting [2]); 5+ with ERα (setting [3]); 3+ with ERα (DES present during binding); 2+ with ERα (setting [4]); 2+ in the test with ERα (Estriol present during binding). The “binding of peptide … on ERα” value in the test with ERα (setting [5]) is 2+; with ERα (setting [6]) it was 2+; with ERα (setting [7]), 2+; with ERα (setting [8]) it was 4+; with ERα (setting [9]), 2+; with ERα (buffer present during binding), 5+.
